Results on 1 molecule are retold here after patent publication US20050058643A1 (APITOPE TECHNOLOGY BRISTOL, published 2005).

For the assay, the target named is T1, HLA:DR2 (DRB1*1501) MHC Class II molecule (human).
T1 construct: whole, on cells
Kind of assay: conclusion drawn from presentation and tolerance experiments (fixed HLA-DR2+ APC; HLA:DR2 transgenic mice); no direct binding assay.

B1: MBP peptide 140-154 (peptide)
peptide: GFKGVDAQGTLSKIF
notes: also called APITOPE-MS-6
Consider B1, for which the binding result is recorded as “binds”.
